Assay results from the supplement of paper PMC10567573.

B1: DYRK1B (parent)
chain: RFQDLVLRMLEYEPAARISPLGAL

Variants of: B1
Assay: protein stability index of a GFP-peptide fusion (GPS, HEK-293T) (PSI 1-6); higher = more stable
Details: c terminus: a fixed tail appended
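Also: lentivirally expressed fusions sorted by FACS into six bins by GFP to DsRed ratio, PSI derived from sequencing read proportions per bin multiplied by bin number.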

| Variant | protein stability index |
| --- | --- |
| RFQDLVLRMLVYEPAARISPLGAL [E11V] | 3.51 |
| RFQDLVLRMLNYEPAARISPLGAL [E11N] | 2.21 |
| RFQDLVLRMLAYEPAARISPLGAL [E11A] | 1.56 |
| RFQDLVLRMLYYEPAARISPLGAL [E11Y] | 3.21 |
| RFQDLVLRMLMYEPAARISPLGAL [E11M] | 3.73 |
| RFQDLVLRMLHYEPAARISPLGAL [E11H] | 2.96 |
| RFQDLVLRMLQYEPAARISPLGAL [E11Q] | 2.81 |
| RFQDLVLRMLRYEPAARISPLGAL [E11R] | 2.66 |
| RFQDLVLRMLPYEPAARISPLGAL [E11P] | 3.04 |
| RFQDLVLRMLLYEPAARISPLGAL [E11L] | 2.25 |
| RFQDLVLRMLTYEPAARISPLGAL [E11T] | 3.67 |
| RFQDLVLRMLEYEPAAGISPLGAL [R17G] | 2.29 |
| RFQDLVLRMLEYEPAACISPLGAL [R17C] | 2.25 |
| RFQDLVLRMLEYEPAAYISPLGAL [R17Y] | 3.04 |
| RFQDLVLRMLEYEPAAIISPLGAL [R17I] | 4.01 |
| RFQDLVLRMLEYEPAAFISPLGAL [R17F] | 1.77 |
| RFQDLVLRMLEYEPAADISPLGAL [R17D] | 1.91 |
| RFQDLVLRMLEYEPAASISPLGAL [R17S] | 2.69 |
| RFQDLVLRMLEYEPAAPISPLGAL [R17P] | 2.75 |
| RFQDLVLRMLEYEPAANISPLGAL [R17N] | 1.46 |
| RFQDLVLRMLEYEPAATISPLGAL [R17T] | 1 |
| RFQDLVLRMLEYEPAAMISPLGAL [R17M] | 4.29 |
| RFQDLYLRMLEYEPAARISPLGAL [V6Y] | 2.18 |
| RFQDLILRMLEYEPAARISPLGAL [V6I] | 2.23 |

| Variant | protein stability index |
| --- | --- |
| RFQDLKLRMLEYEPAARISPLGAL [V6K] | 1.51 |
| RFQDLLLRMLEYEPAARISPLGAL [V6L] | 1.77 |
| RFQDLGLRMLEYEPAARISPLGAL [V6G] | 1.88 |
| RFQDLSLRMLEYEPAARISPLGAL [V6S] | 1.91 |
| RFQDLDLRMLEYEPAARISPLGAL [V6D] | 2.24 |
| RFQDLWLRMLEYEPAARISPLGAL [V6W] | 1.03 |
| RFQDLNLRMLEYEPAARISPLGAL [V6N] | 2.78 |
| RFQDLHLRMLEYEPAARISPLGAL [V6H] | 2.01 |
| RFQDLQLRMLEYEPAARISPLGAL [V6Q] | 2.12 |
| RFQDLRLRMLEYEPAARISPLGAL [V6R] | 2 |
| RFQDLPLRMLEYEPAARISPLGAL [V6P] | 2.58 |
| RFQDLALRMLEYEPAARISPLGAL [V6A] | 2.26 |
| RFQDLTLRMLEYEPAARISPLGAL [V6T] | 2.07 |
| RFQDLVLRMLEYEPAARRSPLGAL [I18R] | 1.15 |
| RFQDLVLRMLEYEPAARHSPLGAL [I18H] | 1.23 |
| RFQDLVLRMLEYEPAARLSPLGAL [I18L] | 2.33 |
| RFQDLVLRMLEYEPAARMSPLGAL [I18M] | 2.17 |
| RFQDLVLRMLEYEPAARNSPLGAL [I18N] | 1.23 |
| RFQDLVLRMLEYEPAARFSPLGAL [I18F] | 2.3 |
| RFQDLVLRMLEYEPAARSSPLGAL [I18S] | 2.1 |
| RFQDLVLRMLEYEPAARQSPLGAL [I18Q] | 2.04 |
| RFQDLVLRMLEYEPAARDSPLGAL [I18D] | 1.65 |
| RFQDLVLRMLEYEPAARASPLGAL [I18A] | 1.41 |
| RFQDLVLRMLEYEPAARGSPLGAL [I18G] | 1.27 |

| Variant | protein stability index |
| --- | --- |
| RFQDLVLRMLEYEPAARPSPLGAL [I18P] | 1.98 |
| RFQDLVLRMLEYEPAARESPLGAL [I18E] | 2.06 |
| RFQDLVLRMLEYEPAARTSPLGAL [I18T] | 1.3 |
| RFQDLVLRMDEYEPAARISPLGAL [L10D] | 1.92 |
| RFQDLVLRMTEYEPAARISPLGAL [L10T] | 2.19 |
| RFQDLVLRMGEYEPAARISPLGAL [L10G] | 1.66 |
| RFQDLVLRMNEYEPAARISPLGAL [L10N] | 1.64 |
| RFQDLVLRMIEYEPAARISPLGAL [L10I] | 1.96 |
| RFQDLVLRMQEYEPAARISPLGAL [L10Q] | 1.6 |
| RFQDLVLRMEEYEPAARISPLGAL [L10E] | 1.27 |
| RFQDLVLRMAEYEPAARISPLGAL [L10A] | 3.32 |
| RFQDLVLRMMEYEPAARISPLGAL [L10M] | 2.05 |
| RFQDLVLRMHEYEPAARISPLGAL [L10H] | 1.17 |
| RFQDLVLRMPEYEPAARISPLGAL [L10P] | 2.37 |
| RFQDLVLRLLEYEPAARISPLGAL [M9L] | 2.7 |
| RFQDLVLRNLEYEPAARISPLGAL [M9N] | 2.33 |
| RFQDLVLRRLEYEPAARISPLGAL [M9R] | 1.86 |
| RFQDLVLRGLEYEPAARISPLGAL [M9G] | 1.33 |
| RFQDLVLRTLEYEPAARISPLGAL [M9T] | 1.83 |
| RFQDLVLRKLEYEPAARISPLGAL [M9K] | 1.53 |
| RFQDLVLRDLEYEPAARISPLGAL [M9D] | 3.29 |
| RFQDLVLRSLEYEPAARISPLGAL [M9S] | 1.09 |
| RFQDLVLRELEYEPAARISPLGAL [M9E] | 1.98 |
| RFQDLVLRHLEYEPAARISPLGAL [M9H] | 2.78 |

| Variant | protein stability index |
| --- | --- |
| RFQDLVLRFLEYEPAARISPLGAL [M9F] | 2.77 |
| RFQDLVLRMLEYEPAARIGPLGAL [S19G] | 1.07 |
| RFQDLVLRMLEYEPAARIDPLGAL [S19D] | 1.76 |
| RFQDLVLRMLEYEPAARIAPLGAL [S19A] | 1.17 |
| RFQDLVLRMLEYEPAARIEPLGAL [S19E] | 3.96 |
| RFTDLVLRMLEYEPAARISPLGAL [Q3T] | 3.41 |
| RFEDLVLRMLEYEPAARISPLGAL [Q3E] | 2.19 |
| RFDDLVLRMLEYEPAARISPLGAL [Q3D] | 1.82 |
| RFIDLVLRMLEYEPAARISPLGAL [Q3I] | 2.91 |
| RFNDLVLRMLEYEPAARISPLGAL [Q3N] | 2.28 |
| RFPDLVLRMLEYEPAARISPLGAL [Q3P] | 2.05 |
| RFVDLVLRMLEYEPAARISPLGAL [Q3V] | 4.49 |
| RFYDLVLRMLEYEPAARISPLGAL [Q3Y] | 3.44 |
| RFHDLVLRMLEYEPAARISPLGAL [Q3H] | 1.95 |
| RFKDLVLRMLEYEPAARISPLGAL [Q3K] | 2.03 |
| RFRDLVLRMLEYEPAARISPLGAL [Q3R] | 1.19 |
| RFSDLVLRMLEYEPAARISPLGAL [Q3S] | 2.84 |
| RFQDLVHRMLEYEPAARISPLGAL [L7H] | 1.03 |
| RFQDLVSRMLEYEPAARISPLGAL [L7S] | 2.05 |
| RFQDLVTRMLEYEPAARISPLGAL [L7T] | 2.3 |
| RFQDLVPRMLEYEPAARISPLGAL [L7P] | 2.25 |
| RFQDLVMRMLEYEPAARISPLGAL [L7M] | 2.13 |
